The data set deals with the molecule itself. Nature of the data set: dynamic light scattering; protein in solution, 10 µM, 25 mM Tris pH 7.4, 3% PEG 8000, NaCl as indicated (lower ionic strength); diameters modelled as Rayleigh spheres; monomers against higher ordered structures.

The text below walks through data of publication PMC10766989, “The juxtamembrane linker of synaptotagmin 1 regulates Ca^2+ binding via liquid-liquid phase separation” (Nature Communications, 2024).

B1: GFP-syt1 (80–142) (domain or fragment, UniProt P21707 80-142, looked up)
chain: KKCLFKKKNKKKGKEKGGKNAINMKDVKDLGKTMKDQALKDDDAETGLTDGEEKEEPKEEEKL
notes: synaptotagmin 1 (syt1), juxtamembrane linker, residues 80–142; also called GFP-tagged juxtamembrane linker (80–142); isolated juxtamembrane linker (residues 80–142); source: E. coli BL21(DE3), purified (Ni-NTA, eluted with 200 mM imidazole, dialysed); not shown: msGFP (no linker), N-terminal, kept
For the protein B1, the binding result is on record as “binds”.
